# Assay results as given in the supplement of paper PMC10724198.
# ± gives the standard deviation of the averaged measurements.
# Test system: Saccharomyces cerevisiae
# Test: protein stability index of tFT-peptide fusion in wild type (PSI (0-1 scale)); higher = more stable (slower turnover)
# Conditions: genetic background: wild type
# Experimental: (§1)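 MPS profiling in S. cerevisiae of two library types built from selected 12-aa C-degron peptides (IN1, IN2, LN1, LN3, VN2, R1-R5, W1-W3, Atg1 and Rpa12 C-termini): saturation mutagenesis libraries and C-terminal +1 capping libraries (13 aa). Each peptide is fused to the C-terminus of a sfGFP-mCherry timer, after a GGGS linker. Cells are FACS-sorted into 8 mCherry/sfGFP bins and sequenced. PSI runs from 0 (unstable) to 1 (stable), measured once in wild type and in the das1Δ or doa10Δ background.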
# 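For protein stability index of tFT-peptide fusion in deletion strain of DAS1 in this document: PSI is a weighted mean of each variant's read distribution over the sorted stability bins, computed only for variants having over 10 reads in total.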
# 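For protein stability index of tFT-peptide fusion in wild type in this document: PSI derived as read-weighted mean over the 8 sorting bins, only variants exceeding 10 total reads kept, mCherry placed adjacent to the peptide and sfGFP distal.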
row,Sequence,protein stability index
1,AAWRVGLWRGAS,0.503
2,AFWRVGLWRGAS,0.496
3,AKWRVGLWRGAS,0.392
4,ARARVGLWRGAS,0.531
5,ARGRVGLWRGAS,0.432
6,ARWHVGLWRGAS,0.365
7,ARWPVGLWRGAS,0.399
8,ARWQVGLWRGAS,0.444
9,ARWRFGLWRGAS,0.581
10,ARWRHGLWRGAS,0.666
11,ARWRVGLARGAS,0.707
12,ARWRVGLNRGAS,0.68
13,ARWRVGLQRGAS,0.677
14,ARWRVGLSRGAS,0.669
15,ARWRVGLWEGAS,0.675
16,ARWRVGLWPGAS,0.71
17,ARWRVGLWRAAS,0.117
18,ARWRVGLWRDAS,0.6
19,ARWRVGLWREAS,0.169
20,ARWRVGLWRGAC,0.123
21,ARWRVGLWRGASD,0.688
22,ARWRVGLWRGASF,0.661

row,Sequence,protein stability index
1,ARWRVGLWRGASI,0.652
2,ARWRVGLWRGASQ,0.661
3,ARWRVGLWRGAST,0.659
4,ARWRVGLWRGIS,0.109
5,ARWRVGLWRGKS,0.653
6,ARWRVGLWRGSS,0.516
7,ARWRVGLWRGTS,0.318
8,ARWRVGLWRPAS,0.645
9,ARWRVGLWRSAS,0.102
10,ARWRVPLWRGAS,0.646
11,ARWTVGLWRGAS,0.495
12,ARYRVGLWRGAS,0.567
13,CLIQPLPVQFLN,0.103
14,CRSCGYKFRTNN,0.243
15,CSSCGYKFRTNN,0.216
16,CTGCGYKFRTNN,0.231
17,CTICGYKFRTNN,0.27
18,CTQCGYKFRTNN,0.25
19,CTRCGYKFRTNN,0.231
20,CTSCGNKFRTNN,0.52
21,CTSCGYDFRTNN,0.639
22,CTSCGYKFRTHN,0.325

row,Sequence,protein stability index
1,CTSCGYKFRTMN,0.186
2,CTSCGYKFRTNK,0.689
3,CTSCGYKFRTNND,0.692
4,CTSCGYKFRTNNN,0.674
5,CTSCGYKFRTNT,0.579
6,CTSCGYKFTTNN,0.675
7,CTSCGYKIRTNN,0.261
8,CTSCGYQFRTNN,0.496
9,CTSCGYSFRTNN,0.391
10,CTSCGYWFRTNN,0.438
11,CTSCMYKFRTNN,0.207
12,CTSCRYKFRTNN,0.395
13,FNMRWTFRYWVN,0.0433
14,FRGAVGGWRLVG,0.192
15,FSARWTFRYWVN,0.0651
16,FSMMWTFRYWVN,0.0586
17,FSMRWTERYWVN,0.0612
18,FSMRWTFCYWVN,0.0818
19,FSMRWTFFYWVN,0.104
20,FSMRWTFIYWVN,0.0416
21,FSMRWTFPYWVN,0.079
22,FSMRWTFRCWVN,0.17

row,Sequence,protein stability index
1,FSMRWTFRTWVN,0.181
2,FSMRWTFRYEVN,0.168
3,FSMRWTFRYQVN,0.0962
4,FSMRWTFRYWFN,0.318
5,FSMRWTFRYWGN,0.19
6,FSMRWTFRYWIN,0.0567
7,FSMRWTFRYWTN,0.0691
8,FSMRWTFRYWVNV,0.147
9,FSMRWTFRYWVP,0.541
10,FSMRWTFRYWVS,0.181
11,FSMRWTFRYWVW,0.195
12,FSMRWTFRYWWN,0.271
13,FSMRWTIRYWVN,0.0535
14,FSMRWTLRYWVN,0.0387
15,FSTRWTFRYWVN,0.0442
16,FSWRWTFRYWVN,0.0592
17,HRGAVGGWRLVG,0.172
18,HTSCGYKFRTNN,0.215
19,KCHKKGQKQKIN,0.342
20,KKDKKGQKQKIN,0.104

# Test system: Saccharomyces cerevisiae
# Test: protein stability index of tFT-peptide fusion in deletion strain of DAS1 (PSI (0-1 scale)); higher = more stable (slower turnover)
# Conditions: not given
# Experimental: as §1
row,Sequence,protein stability index
1,AAWRVGLWRGAS,0.72
2,AFWRVGLWRGAS,0.704
3,AKWRVGLWRGAS,0.692
4,ARARVGLWRGAS,0.688
5,ARGRVGLWRGAS,0.685
6,ARWHVGLWRGAS,0.71
7,ARWPVGLWRGAS,0.703
8,ARWQVGLWRGAS,0.656
9,ARWRFGLWRGAS,0.698
10,ARWRHGLWRGAS,0.685
11,ARWRVGLARGAS,0.692
12,ARWRVGLNRGAS,0.668
13,ARWRVGLQRGAS,0.69
14,ARWRVGLSRGAS,0.695
15,ARWRVGLWEGAS,0.658
16,ARWRVGLWPGAS,0.689
17,ARWRVGLWRAAS,0.683
18,ARWRVGLWRDAS,0.702
19,ARWRVGLWREAS,0.668
20,ARWRVGLWRGAC,0.681
21,ARWRVGLWRGASD,0.686
22,ARWRVGLWRGASF,0.679

row,Sequence,protein stability index
1,ARWRVGLWRGASI,0.665
2,ARWRVGLWRGASQ,0.646
3,ARWRVGLWRGAST,0.682
4,ARWRVGLWRGIS,0.68
5,ARWRVGLWRGKS,0.679
6,ARWRVGLWRGSS,0.686
7,ARWRVGLWRGTS,0.682
8,ARWRVGLWRPAS,0.691
9,ARWRVGLWRSAS,0.693
10,ARWRVPLWRGAS,0.684
11,ARWTVGLWRGAS,0.692
12,ARYRVGLWRGAS,0.668
13,CLIQPLPVQFLN,0.548
14,CRSCGYKFRTNN,0.708
15,CSSCGYKFRTNN,0.695
16,CTGCGYKFRTNN,0.678
17,CTICGYKFRTNN,0.67
18,CTQCGYKFRTNN,0.697
19,CTRCGYKFRTNN,0.699
20,CTSCGNKFRTNN,0.695
21,CTSCGYDFRTNN,0.691
22,CTSCGYKFRTHN,0.717

row,Sequence,protein stability index
1,CTSCGYKFRTMN,0.682
2,CTSCGYKFRTNK,0.704
3,CTSCGYKFRTNND,0.7
4,CTSCGYKFRTNNN,0.677
5,CTSCGYKFRTNT,0.693
6,CTSCGYKFTTNN,0.704
7,CTSCGYKIRTNN,0.704
8,CTSCGYQFRTNN,0.692
9,CTSCGYSFRTNN,0.695
10,CTSCGYWFRTNN,0.668
11,CTSCMYKFRTNN,0.689
12,CTSCRYKFRTNN,0.68
13,FNMRWTFRYWVN,0.518
14,FRGAVGGWRLVG,0.685
15,FSARWTFRYWVN,0.553
16,FSMMWTFRYWVN,0.354
17,FSMRWTERYWVN,0.572
18,FSMRWTFCYWVN,0.365
19,FSMRWTFFYWVN,0.44
20,FSMRWTFIYWVN,0.263
21,FSMRWTFPYWVN,0.601
22,FSMRWTFRCWVN,0.425

row,Sequence,protein stability index
1,FSMRWTFRTWVN,0.475
2,FSMRWTFRYEVN,0.509
3,FSMRWTFRYQVN,0.539
4,FSMRWTFRYWFN,0.503
5,FSMRWTFRYWGN,0.547
6,FSMRWTFRYWIN,0.469
7,FSMRWTFRYWTN,0.644
8,FSMRWTFRYWVNV,0.5
9,FSMRWTFRYWVP,0.541
10,FSMRWTFRYWVS,0.547
11,FSMRWTFRYWVW,0.377
12,FSMRWTFRYWWN,0.497
13,FSMRWTIRYWVN,0.38
14,FSMRWTLRYWVN,0.438
15,FSTRWTFRYWVN,0.62
16,FSWRWTFRYWVN,0.756
17,HRGAVGGWRLVG,0.665
18,HTSCGYKFRTNN,0.677
19,KCHKKGQKQKIN,0.592
20,KKDKKGQKQKIN,0.601

# Test system: Saccharomyces cerevisiae
# Test: protein stability index of tFT-peptide fusion (C-terminal peptide) (PSI (0-1 scale)); higher = more stable (slower turnover)
# Conditions: genetic background: das1 deletion; temperature: 30 C
# Experimental: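 MPS profiling in S. cerevisiae of the yeast C-terminome library: the last 12 aa of each annotated ORF are fused to the C-terminus of a sfGFP-mCherry timer, after a GGGS linker. Cells are FACS-sorted into 8 mCherry/sfGFP bins and deep-sequenced. PSI runs from 0 (unstable) to 1 (stable); wild type and das1Δ backgrounds, two technical replicates each.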
row,Sequence,protein stability index
1,WEDKYPEMGVTV [YHL044W C-terminal 12 aa],0.6911 ± 0.003
2,WTWLDGKFPTFA [GRE3 C-terminal 12 aa],0.751 ± 0.023
3,WVCQEILKLCKD [NRK1 C-terminal 12 aa],0.675 ± 0.0095
4,WVRLPTTSHGLD [SPO73 C-terminal 12 aa],0.71917 ± 0.00042
5,WYQIVVQMIYIC [PSY1 C-terminal 12 aa],0.186 ± 0.0065
6,YDLVEKCVWRGI [ORC3 C-terminal 12 aa],0.707 ± 0.041
7,YEEALKLGWDKN [OYE2 C-terminal 12 aa],0.735 ± 0.046
8,YEEAVDLGWNKN [OYE3 C-terminal 12 aa],0.721 ± 0.009
9,YGSAPSLDSLFL [YJL067W C-terminal 12 aa],0.725 ± 0.02
10,YGTSYVFAISFK [YNL266W C-terminal 12 aa],0.602 ± 0.036
11,YIHTYIYLLFVY [YIL100C-A C-terminal 12 aa],0.222 ± 0.01
12,YIVECIKNVLTK [APL3 C-terminal 12 aa],0.686 ± 0.038
13,YKKMKEMRKKRR [FCF2 C-terminal 12 aa],0.703 ± 0.022
14,YLADELSKALLA [RFA1 C-terminal 12 aa],0.673 ± 0.0099
15,YMMNSQSPRGKI [POM34 C-terminal 12 aa],0.71 ± 0.0093
16,YNITQQILQFLH [VAC8 C-terminal 12 aa],0.701 ± 0.024
17,YPAREGEVLRPN [AKR2 C-terminal 12 aa],0.675 ± 0.025
18,YSAVGNFFSRKK [YGR035W-A C-terminal 12 aa],0.718 ± 0.019

# Same assay, conditions: genetic background: wild type; temperature: 30 C
row,Sequence,protein stability index
1,WEDKYPEMGVTV [YHL044W C-terminal 12 aa],0.706 ± 0.0089
2,WTWLDGKFPTFA [GRE3 C-terminal 12 aa],0.7093 ± 0.0009
3,WVCQEILKLCKD [NRK1 C-terminal 12 aa],0.713 ± 0.036
4,WVRLPTTSHGLD [SPO73 C-terminal 12 aa],0.733 ± 0.016
5,WYQIVVQMIYIC [PSY1 C-terminal 12 aa],0.0907 ± 0.006
6,YDLVEKCVWRGI [ORC3 C-terminal 12 aa],0.716 ± 0.022
7,YEEALKLGWDKN [OYE2 C-terminal 12 aa],0.762 ± 0.0096
8,YEEAVDLGWNKN [OYE3 C-terminal 12 aa],0.714 ± 0.042
9,YGSAPSLDSLFL [YJL067W C-terminal 12 aa],0.6981 ± 0.0068
10,YGTSYVFAISFK [YNL266W C-terminal 12 aa],0.606 ± 0.0098
11,YIHTYIYLLFVY [YIL100C-A C-terminal 12 aa],0.198 ± 0.036
12,YIVECIKNVLTK [APL3 C-terminal 12 aa],0.698 ± 0.018
13,YKKMKEMRKKRR [FCF2 C-terminal 12 aa],0.71 ± 0.05
14,YLADELSKALLA [RFA1 C-terminal 12 aa],0.6545 ± 0.0044
15,YMMNSQSPRGKI [POM34 C-terminal 12 aa],0.732 ± 0.074
16,YNITQQILQFLH [VAC8 C-terminal 12 aa],0.327 ± 0.0072
17,YPAREGEVLRPN [AKR2 C-terminal 12 aa],0.697 ± 0.017
18,YSAVGNFFSRKK [YGR035W-A C-terminal 12 aa],0.6696 ± 0.002
